Laboratory results reported in patent publication US20250339564A1 (ACADEMISCH ZIEKENHUIS LEIDEN H O D N LUMC, published 2025).

Target: T1, Epithelial Cell Adhesion Molecule (EpCAM) (human, UniProt P16422 24-314)
T1 construct: whole, on cells; Target is endogenous EpCAM in patient tumor tissue: in vivo targeting for m1, FFPE sections for the IHC antibodies
T1 sequence (looked up): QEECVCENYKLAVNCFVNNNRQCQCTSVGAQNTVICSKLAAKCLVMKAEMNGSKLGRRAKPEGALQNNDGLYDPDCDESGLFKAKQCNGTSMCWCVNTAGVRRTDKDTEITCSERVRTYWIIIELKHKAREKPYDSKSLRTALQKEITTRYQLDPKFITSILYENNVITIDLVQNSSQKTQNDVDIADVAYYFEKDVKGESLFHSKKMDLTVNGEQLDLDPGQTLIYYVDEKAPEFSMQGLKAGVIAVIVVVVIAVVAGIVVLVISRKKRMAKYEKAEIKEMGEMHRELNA
Experiment: NIR fluorescence microscopy (Axio scan) of metastatic lymph node sections after IV dosing, overlaid with EpCAM IHC

B1: VB5-845D-800CW (Fab, V domains shown)
VH: EVQLQQSGPGLVQPGGSVRISCAASGYTFTAYGMNWVRQAPGKGLEWMGWINTYTGESTYADSFKGRFEFSLDTHNSSAYLQIQSLREEDTAVYYCARFAIQGDYWGQGTLVTVSS
VL: DIQMTQSPSSLSASVGDRVTITCKSTKSLLHSNGITYLYWYQQKPGSAPKLLIYQMSHLASGVPSRFSSSGSGTDFTLTISSLQPEDFATYYCAQNLEIPRTFGQGTKVEIKR
modifications: IRDye 800CW conjugated by N-hydroxysuccinimide ester chemistry to primary amines (sites and chain not stated)
  binding result: binds
